# B1: TRAF3IP2 (parent)
# chain: YGHDYPRAAYQQVIQPALPGQPLP
# Variants of: B1
# Experiment: protein stability index of a GFP-peptide fusion (GPS, HEK-293T) (PSI 1-6); higher = more stable
# Conditions: c terminus: a fixed tail appended
# 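Further: lentivirally expressed fusions sorted by FACS into six bins by GFP to DsRed ratio, PSI derived from sequencing read proportions per bin multiplied by bin number.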
row,Variant,protein stability index
1,MGHDYPRAAYQQVIQPALPGQPLP [Y1M],3.31
2,LGHDYPRAAYQQVIQPALPGQPLP [Y1L],3.95
3,AGHDYPRAAYQQVIQPALPGQPLP [Y1A],3.77
4,DGHDYPRAAYQQVIQPALPGQPLP [Y1D],4.19
5,GGHDYPRAAYQQVIQPALPGQPLP [Y1G],3.63
6,PGHDYPRAAYQQVIQPALPGQPLP [Y1P],4.1
7,CGHDYPRAAYQQVIQPALPGQPLP [Y1C],2.52
8,TGHDYPRAAYQQVIQPALPGQPLP [Y1T],3.54
9,WGHDYPRAAYQQVIQPALPGQPLP [Y1W],2.68
10,HGHDYPRAAYQQVIQPALPGQPLP [Y1H],4.03
11,RGHDYPRAAYQQVIQPALPGQPLP [Y1R],3.71
12,IGHDYPRAAYQQVIQPALPGQPLP [Y1I],3.52
13,FGHDYPRAAYQQVIQPALPGQPLP [Y1F],2.12
14,NGHDYPRAAYQQVIQPALPGQPLP [Y1N],4.21
15,VGHDYPRAAYQQVIQPALPGQPLP [Y1V],4.01
16,KGHDYPRAAYQQVIQPALPGQPLP [Y1K],3.79
17,EGHDYPRAAYQQVIQPALPGQPLP [Y1E],4.63
18,SGHDYPRAAYQQVIQPALPGQPLP [Y1S],3.75
19,YGHDTPRAAYQQVIQPALPGQPLP [Y5T],3.79
20,YGHDFPRAAYQQVIQPALPGQPLP [Y5F],2.52
21,YGHDIPRAAYQQVIQPALPGQPLP [Y5I],3.43
22,YGHDRPRAAYQQVIQPALPGQPLP [Y5R],3.49
23,YGHDWPRAAYQQVIQPALPGQPLP [Y5W],3.66
24,YGHDKPRAAYQQVIQPALPGQPLP [Y5K],3.86

row,Variant,protein stability index
1,YGHDMPRAAYQQVIQPALPGQPLP [Y5M],3.27
2,YGHDLPRAAYQQVIQPALPGQPLP [Y5L],3.58
3,YGHDSPRAAYQQVIQPALPGQPLP [Y5S],4.1
4,YGHDCPRAAYQQVIQPALPGQPLP [Y5C],3.5
5,YGHDPPRAAYQQVIQPALPGQPLP [Y5P],3.99
6,YGHDHPRAAYQQVIQPALPGQPLP [Y5H],3.73
7,YGHDDPRAAYQQVIQPALPGQPLP [Y5D],4.01
8,YGHDAPRAAYQQVIQPALPGQPLP [Y5A],4.22
9,YGHDGPRAAYQQVIQPALPGQPLP [Y5G],3.78
10,YGHDNPRAAYQQVIQPALPGQPLP [Y5N],3.73
11,YGHDVPRAAYQQVIQPALPGQPLP [Y5V],3.46
12,YGHDEPRAAYQQVIQPALPGQPLP [Y5E],3.88
13,YGHDQPRAAYQQVIQPALPGQPLP [Y5Q],3.83
14,YGIDYPRAAYQQVIQPALPGQPLP [H3I],1.83
15,YGYDYPRAAYQQVIQPALPGQPLP [H3Y],1.74
16,YGEDYPRAAYQQVIQPALPGQPLP [H3E],2.5
17,YGGDYPRAAYQQVIQPALPGQPLP [H3G],4.19
18,YGCDYPRAAYQQVIQPALPGQPLP [H3C],1.86
19,YGQDYPRAAYQQVIQPALPGQPLP [H3Q],2.04
20,YGSDYPRAAYQQVIQPALPGQPLP [H3S],2.2
21,YGMDYPRAAYQQVIQPALPGQPLP [H3M],1.77
22,YGWDYPRAAYQQVIQPALPGQPLP [H3W],1.69
23,YGFDYPRAAYQQVIQPALPGQPLP [H3F],2.08
24,YGNDYPRAAYQQVIQPALPGQPLP [H3N],1.83

row,Variant,protein stability index
1,YGKDYPRAAYQQVIQPALPGQPLP [H3K],2.5
2,YGDDYPRAAYQQVIQPALPGQPLP [H3D],2.02
3,YGPDYPRAAYQQVIQPALPGQPLP [H3P],4.18
4,YGLDYPRAAYQQVIQPALPGQPLP [H3L],1.86
5,YGRDYPRAAYQQVIQPALPGQPLP [H3R],2.19
6,YGTDYPRAAYQQVIQPALPGQPLP [H3T],1.73
7,YGADYPRAAYQQVIQPALPGQPLP [H3A],2.05
8,YGVDYPRAAYQQVIQPALPGQPLP [H3V],2.4
9,YGHMYPRAAYQQVIQPALPGQPLP [D4M],1.66
10,YGHHYPRAAYQQVIQPALPGQPLP [D4H],1.94
11,YGHIYPRAAYQQVIQPALPGQPLP [D4I],2.1
12,YGHKYPRAAYQQVIQPALPGQPLP [D4K],2.7
13,YGHPYPRAAYQQVIQPALPGQPLP [D4P],3.33
14,YGHCYPRAAYQQVIQPALPGQPLP [D4C],1.8
15,YGHVYPRAAYQQVIQPALPGQPLP [D4V],2.36
16,YGHTYPRAAYQQVIQPALPGQPLP [D4T],2.13
17,YGHWYPRAAYQQVIQPALPGQPLP [D4W],2.08
18,YGHGYPRAAYQQVIQPALPGQPLP [D4G],2.05
19,YGHNYPRAAYQQVIQPALPGQPLP [D4N],2.42
20,YGHQYPRAAYQQVIQPALPGQPLP [D4Q],1.85
21,YGHAYPRAAYQQVIQPALPGQPLP [D4A],1.55
22,YGHYYPRAAYQQVIQPALPGQPLP [D4Y],2.9
23,YGHSYPRAAYQQVIQPALPGQPLP [D4S],2.07
24,YGHEYPRAAYQQVIQPALPGQPLP [D4E],1.81

row,Variant,protein stability index
1,YGHRYPRAAYQQVIQPALPGQPLP [D4R],2.21
2,YGHLYPRAAYQQVIQPALPGQPLP [D4L],1.73
3,YGHFYPRAAYQQVIQPALPGQPLP [D4F],1.56
4,YSHDYPRAAYQQVIQPALPGQPLP [G2S],2.56
5,YFHDYPRAAYQQVIQPALPGQPLP [G2F],3.36
6,YKHDYPRAAYQQVIQPALPGQPLP [G2K],3.69
7,YLHDYPRAAYQQVIQPALPGQPLP [G2L],2.6
8,YVHDYPRAAYQQVIQPALPGQPLP [G2V],1.83
9,YYHDYPRAAYQQVIQPALPGQPLP [G2Y],2.38
10,YPHDYPRAAYQQVIQPALPGQPLP [G2P],3.42
11,YEHDYPRAAYQQVIQPALPGQPLP [G2E],3.78
12,YWHDYPRAAYQQVIQPALPGQPLP [G2W],2.03
13,YTHDYPRAAYQQVIQPALPGQPLP [G2T],2.27
14,YMHDYPRAAYQQVIQPALPGQPLP [G2M],2.15
15,YNHDYPRAAYQQVIQPALPGQPLP [G2N],2.46
16,YAHDYPRAAYQQVIQPALPGQPLP [G2A],2.41
17,YIHDYPRAAYQQVIQPALPGQPLP [G2I],1.97
18,YQHDYPRAAYQQVIQPALPGQPLP [G2Q],2.62
19,YHHDYPRAAYQQVIQPALPGQPLP [G2H],2.46
20,YRHDYPRAAYQQVIQPALPGQPLP [G2R],3.52
21,YCHDYPRAAYQQVIQPALPGQPLP [G2C],1.67
22,YDHDYPRAAYQQVIQPALPGQPLP [G2D],3.43
